Test results reported in IntAct's records for PubMed 25910212.

B1: Emerin (Homo sapiens), P50402 (parent)
chain: MDNYADLSDTELTTLLRRYNIPHGPVVGSTRRLYEKKIFEYETQRRRLSPPSSSAASSYSFSDLNSTRGDADMYDLPKKEDALLYQSKGYNDDYYEESYFTTRTYGEPESAGPSRAVRQSVTSFPDADAFHHQVHDDDLLSSSEEECKDRERPMYGRDSAYQSITHYRPVSASRSSLDLSYYPTSSSTSFMSSSSSSSSWLTRRAIRPENRAPGAGLGQDRQVPLWGQLLLFLVFVIVLFFIYHFMQAEEGNPF
B2: E3 ubiquitin-protein ligase Midline-1 (Homo sapiens), O15344 (parent)
chain: METLESELTCPICLELFEDPLLLPCAHSLCFNCAHRILVSHCATNESVESITAFQCPTCRHVITLSQRGLDGLKRNVTLQNIIDRFQKASVSGPNSPSETRRERAFDANTMTSAEKVLCQFCDQDPAQDAVKTCVTCEVSYCDECLKATHPNKKPFTGHRLIEPIPDSHIRGLMCLEHEDEKVNMYCVTDDQLICALCKLVGRHRDHQVAALSERYDKLKQNLESNLTNLIKRNTELETLLAKLIQTCQHVEVNASRQEAKLTEECDLLIEIIQQRRQIIGTKIKEGKVMRLRKLAQQIANCKQCIERSASLISQAEHSLKENDHARFLQTAKNITERVSMATASSQVLIPEINLNDTFDTFALDFSREKKLLECLDYLTAPNPPTIREELCTASYDTITVHWTSDDEFSVVSYELQYTIFTGQANVVSLCNSADSWMIVPNIKQNHYTVHGLQSGTKYIFMVKAINQAGSRSSEPGKLKTNSQPFKLDPKSAHRKLKVSHDNLTVERDESSSKKSHTPERFTSQGSYGVAGNVFIDSGRHYWEVVISGSTWYAIGLAYKSAPKHEWIGKNSASWALCRCNNNWVVRHNSKEIPIEPAPHLRRVGILLDYDNGSIAFYDALNSIHLYTFDVAFAQPVCPTFTVWNKCLTIITGLPIPDHLDCTEQLP
partner: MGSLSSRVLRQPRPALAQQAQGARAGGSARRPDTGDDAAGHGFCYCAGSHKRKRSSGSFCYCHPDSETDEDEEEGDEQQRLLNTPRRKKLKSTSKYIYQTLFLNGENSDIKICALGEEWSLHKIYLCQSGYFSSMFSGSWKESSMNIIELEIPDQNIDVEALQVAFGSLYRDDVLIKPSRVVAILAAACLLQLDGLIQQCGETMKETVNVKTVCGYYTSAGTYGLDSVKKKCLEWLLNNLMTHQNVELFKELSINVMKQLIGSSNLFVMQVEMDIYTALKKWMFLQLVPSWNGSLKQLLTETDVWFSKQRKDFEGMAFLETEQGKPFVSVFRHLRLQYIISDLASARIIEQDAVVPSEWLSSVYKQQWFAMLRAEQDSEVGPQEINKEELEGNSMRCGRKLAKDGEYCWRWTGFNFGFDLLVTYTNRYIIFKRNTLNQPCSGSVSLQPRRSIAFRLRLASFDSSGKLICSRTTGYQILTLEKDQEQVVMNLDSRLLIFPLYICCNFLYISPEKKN
B3: Multifunctional procollagen lysine hydroxylase and glycosyltransferase LH3 (Homo sapiens), O60568 (parent)
chain: MTSSGPGPRFLLLLPLLLPPAASASDRPRGRDPVNPEKLLVITVATAETEGYLRFLRSAEFFNYTVRTLGLGEEWRGGDVARTVGGGQKVRWLKKEMEKYADREDMIIMFVDSYDVILAGSPTELLKKFVQSGSRLLFSAESFCWPEWGLAEQYPEVGTGKRFLNSGGFIGFATTIHQIVRQWKYKDDDDDQLFYTRLYLDPGLREKLSLNLDHKSRIFQNLNGALDEVVLKFDRNRVRIRNVAYDTLPIVVHGNGPTKLQLNYLGNYVPNGWTPEGGCGFCNQDRRTLPGGQPPPRVFLAVFVEQPTPFLPRFLQRLLLLDYPPDRVTLFLHNNEVFHEPHIADSWPQLQDHFSAVKLVGPEEALSPGEARDMAMDLCRQDPECEFYFSLDADAVLTNLQTLRILIEENRKVIAPMLSRHGKLWSNFWGALSPDEYYARSEDYVELVQRKRVGVWNVPYISQAYVIRGDTLRMELPQRDVFSGSDTDPDMAFCKSFRDKGIFLHLSNQHEFGRLLATSRYDTEHLHPDLWQIFDNPVDWKEQYIHENYSRALEGEGIVEQPCPDVYWFPLLSEQMCDELVAEMEHYGQWSGGRHEDSRLAGGYENVPTVDIHMKQVGYEDQWLQLLRTYVGPMTESLFPGYHTKARAVMNFVVRYRPDEQPSLRPHHDSSTFTLNVALNHKGLDYEGGGCRFLRYDCVISSPRKGWALLHPGRLTHYHEGLPTTWGTRYIMVSFVDP
partner: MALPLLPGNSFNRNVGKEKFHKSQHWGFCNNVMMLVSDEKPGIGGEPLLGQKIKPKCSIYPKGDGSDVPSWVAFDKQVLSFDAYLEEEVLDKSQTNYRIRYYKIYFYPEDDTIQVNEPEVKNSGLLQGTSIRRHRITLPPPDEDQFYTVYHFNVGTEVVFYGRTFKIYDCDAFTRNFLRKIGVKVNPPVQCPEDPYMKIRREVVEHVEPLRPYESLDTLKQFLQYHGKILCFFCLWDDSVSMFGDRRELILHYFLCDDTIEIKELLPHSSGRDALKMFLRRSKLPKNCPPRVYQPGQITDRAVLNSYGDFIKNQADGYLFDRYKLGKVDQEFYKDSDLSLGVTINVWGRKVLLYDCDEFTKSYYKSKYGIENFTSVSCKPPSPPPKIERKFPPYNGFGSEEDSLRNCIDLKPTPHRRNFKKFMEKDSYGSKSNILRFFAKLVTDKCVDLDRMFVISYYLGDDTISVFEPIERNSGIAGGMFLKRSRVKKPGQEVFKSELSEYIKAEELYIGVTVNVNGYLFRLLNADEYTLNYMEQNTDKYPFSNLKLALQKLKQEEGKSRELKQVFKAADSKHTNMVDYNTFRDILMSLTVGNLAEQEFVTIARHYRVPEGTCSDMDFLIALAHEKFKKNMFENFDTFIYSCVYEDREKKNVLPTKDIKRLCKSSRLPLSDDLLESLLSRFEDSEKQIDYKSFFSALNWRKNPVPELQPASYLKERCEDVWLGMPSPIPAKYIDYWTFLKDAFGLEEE
B4: 60 kDa heat shock protein, mitochondrial (Homo sapiens), P10809 (parent)
chain: MLRLPTVFRQMRPVSRVLAPHLTRAYAKDVKFGADARALMLQGVDLLADAVAVTMGPKGRTVIIEQSWGSPKVTKDGVTVAKSIDLKDKYKNIGAKLVQDVANNTNEEAGDGTTTATVLARSIAKEGFEKISKGANPVEIRRGVMLAVDAVIAELKKQSKPVTTPEEIAQVATISANGDKEIGNIISDAMKKVGRKGVITVKDGKTLNDELEIIEGMKFDRGYISPYFINTSKGQKCEFQDAYVLLSEKKISSIQSIVPALEIANAHRKPLVIIAEDVDGEALSTLVLNRLKVGLQVVAVKAPGFGDNRKNQLKDMAIATGGAVFGEEGLTLNLEDVQPHDLGKVGEVIVTKDDAMLLKGKGDKAQIEKRIQEIIEQLDVTTSEYEKEKLNERLAKLSDGVAVLKVGGTSDVEVNEKKDRVTDALNATRAAVEEGIVLGGGCALLRCIPALDSLTPANEDQKIGIEIIKRTLKIPAMTIAKNAGVEGSLIVEKIMQSSSEVGYDAMAGDFVNMVEKGIIDPTKVVRTALLDAAGVASLLTTAEVVVTEIPKEEKDPGMGAMGGMGGGMGGGMF
B5: Mothers against decapentaplegic homolog 3 (Homo sapiens), P84022 (parent)
chain: MSSILPFTPPIVKRLLGWKKGEQNGQEEKWCEKAVKSLVKKLKKTGQLDELEKAITTQNVNTKCITIPRSLDGRLQVSHRKGLPHVIYCRLWRWPDLHSHHELRAMELCEFAFNMKKDEVCVNPYHYQRVETPVLPPVLVPRHTEIPAEFPPLDDYSHSIPENTNFPAGIEPQSNIPETPPPGYLSEDGETSDHQMNHSMDAGSPNLSPNPMSPAHNNLDLQPVTYCEPAFWCSISYYELNQRVGETFHASQPSMTVDGFTDPSNSERFCLGLLSNVNRNAAVELTRRHIGRGVRLYYIGGEVFAECLSDSAIFVQSPNCNQRYGWHPATVCKIPPGCNLKIFNNQEFAALLAQSVNQGFEAVYQLTRMCTIRMSFVKGWGAEYRRQTVTSTPCWIELHLNGPLQWLDKVLTQMGSPSIRCSSVS

Variants of: B1
Details: with vapb_human VAPB

Row | effect of a mutation on the interaction | Variant
1 | with no effect | P183T

Variants of: B1
Details: with tri42_human TRIM42, Q8IWZ5
Sequence of tri42_human TRIM42, Q8IWZ5 (Q8IWZ5 whole entry): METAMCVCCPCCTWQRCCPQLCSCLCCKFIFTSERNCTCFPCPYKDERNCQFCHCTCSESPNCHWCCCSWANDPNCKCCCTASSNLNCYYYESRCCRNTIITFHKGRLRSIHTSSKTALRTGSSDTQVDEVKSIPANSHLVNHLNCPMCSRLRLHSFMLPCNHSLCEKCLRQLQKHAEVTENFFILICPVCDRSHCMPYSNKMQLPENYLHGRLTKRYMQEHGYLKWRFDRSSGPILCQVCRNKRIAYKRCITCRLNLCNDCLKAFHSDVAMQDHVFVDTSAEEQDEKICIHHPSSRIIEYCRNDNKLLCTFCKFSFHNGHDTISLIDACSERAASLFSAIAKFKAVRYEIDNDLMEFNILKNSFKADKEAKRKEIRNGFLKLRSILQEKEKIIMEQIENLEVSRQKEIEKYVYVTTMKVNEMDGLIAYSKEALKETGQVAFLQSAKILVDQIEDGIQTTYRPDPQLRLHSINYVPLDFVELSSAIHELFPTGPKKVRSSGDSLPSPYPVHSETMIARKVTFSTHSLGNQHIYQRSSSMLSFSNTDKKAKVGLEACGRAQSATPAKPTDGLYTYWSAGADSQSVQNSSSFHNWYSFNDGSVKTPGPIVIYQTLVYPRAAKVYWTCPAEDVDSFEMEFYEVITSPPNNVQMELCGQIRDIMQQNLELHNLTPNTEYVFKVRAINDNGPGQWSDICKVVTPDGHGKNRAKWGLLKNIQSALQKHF

Row | effect of a mutation on the interaction | Variant
2 | with no effect | P183T

Variants of: B1
Details: with stx4_human STX4, Q12846
Sequence of stx4_human STX4, Q12846 (Q12846 whole entry): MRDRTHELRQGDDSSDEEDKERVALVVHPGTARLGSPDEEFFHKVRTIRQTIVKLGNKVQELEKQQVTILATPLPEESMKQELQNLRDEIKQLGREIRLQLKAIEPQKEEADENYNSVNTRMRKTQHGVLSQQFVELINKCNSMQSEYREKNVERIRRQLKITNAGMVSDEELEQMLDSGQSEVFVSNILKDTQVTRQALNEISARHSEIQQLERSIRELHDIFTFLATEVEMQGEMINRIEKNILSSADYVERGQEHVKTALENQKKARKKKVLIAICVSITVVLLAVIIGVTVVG

Row | effect of a mutation on the interaction | Variant
3 | with no effect | P183T

Variants of: B1
Details: with meox2_human MEOX2, P50222
Target sequence in this assay (P50222 whole entry): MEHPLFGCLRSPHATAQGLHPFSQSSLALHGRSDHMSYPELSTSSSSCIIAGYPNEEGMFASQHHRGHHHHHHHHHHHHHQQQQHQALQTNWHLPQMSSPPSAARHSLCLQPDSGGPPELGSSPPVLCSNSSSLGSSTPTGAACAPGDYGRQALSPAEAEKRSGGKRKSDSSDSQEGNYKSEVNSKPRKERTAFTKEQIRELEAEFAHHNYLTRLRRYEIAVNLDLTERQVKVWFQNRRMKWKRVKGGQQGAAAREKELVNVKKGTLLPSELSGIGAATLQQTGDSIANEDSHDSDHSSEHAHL

Row | effect of a mutation on the interaction | Variant
4 | with no effect | P183T

Variants of: B1
Details: with ccd33_human CCDC33, Q8N5R6
Target sequence in this assay (Q8N5R6 whole entry): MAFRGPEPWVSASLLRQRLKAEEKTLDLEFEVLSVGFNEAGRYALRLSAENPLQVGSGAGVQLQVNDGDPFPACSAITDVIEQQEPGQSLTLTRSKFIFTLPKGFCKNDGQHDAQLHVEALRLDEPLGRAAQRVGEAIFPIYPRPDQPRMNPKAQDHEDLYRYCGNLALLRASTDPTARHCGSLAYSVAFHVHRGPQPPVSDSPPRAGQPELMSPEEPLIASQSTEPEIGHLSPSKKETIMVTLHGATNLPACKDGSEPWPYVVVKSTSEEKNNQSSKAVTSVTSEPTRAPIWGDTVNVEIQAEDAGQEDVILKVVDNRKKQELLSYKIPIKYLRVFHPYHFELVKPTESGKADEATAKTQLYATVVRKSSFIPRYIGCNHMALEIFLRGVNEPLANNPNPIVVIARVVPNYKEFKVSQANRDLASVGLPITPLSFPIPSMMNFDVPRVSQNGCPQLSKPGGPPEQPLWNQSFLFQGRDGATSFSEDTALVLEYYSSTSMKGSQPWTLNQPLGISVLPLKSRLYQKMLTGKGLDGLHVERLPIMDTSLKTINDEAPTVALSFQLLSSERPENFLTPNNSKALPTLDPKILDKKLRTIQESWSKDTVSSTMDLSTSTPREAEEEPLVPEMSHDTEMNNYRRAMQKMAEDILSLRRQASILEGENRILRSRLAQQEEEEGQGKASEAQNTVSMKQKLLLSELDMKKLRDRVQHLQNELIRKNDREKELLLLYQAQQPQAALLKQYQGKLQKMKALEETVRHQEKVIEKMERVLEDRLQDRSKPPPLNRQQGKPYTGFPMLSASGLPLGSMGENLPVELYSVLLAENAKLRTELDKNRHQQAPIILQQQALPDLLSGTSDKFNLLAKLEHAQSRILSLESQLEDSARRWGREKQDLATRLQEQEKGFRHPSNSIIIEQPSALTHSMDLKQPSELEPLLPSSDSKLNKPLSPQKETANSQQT

Row | effect of a mutation on the interaction | Variant
5 | with no effect | P183T

Variants of: B2
Details: with gmcl1_human GMCL1, Q96IK5

Row | effect of a mutation on the interaction | Variant
6 | with no effect | P151L
7 | with no effect | C266R
8 | with no effect | L626P
9 | with no effect | K370E

Variants of: B3
Details: with efhc2_human EFHC2, Q5JST6

Row | effect of a mutation on the interaction | Variant
10 | with no effect | N223S

Variants of: B4
Details: with lzts2_human LZTS2, Q9BRK4
Sequence of lzts2_human LZTS2, Q9BRK4 (Q9BRK4 whole entry): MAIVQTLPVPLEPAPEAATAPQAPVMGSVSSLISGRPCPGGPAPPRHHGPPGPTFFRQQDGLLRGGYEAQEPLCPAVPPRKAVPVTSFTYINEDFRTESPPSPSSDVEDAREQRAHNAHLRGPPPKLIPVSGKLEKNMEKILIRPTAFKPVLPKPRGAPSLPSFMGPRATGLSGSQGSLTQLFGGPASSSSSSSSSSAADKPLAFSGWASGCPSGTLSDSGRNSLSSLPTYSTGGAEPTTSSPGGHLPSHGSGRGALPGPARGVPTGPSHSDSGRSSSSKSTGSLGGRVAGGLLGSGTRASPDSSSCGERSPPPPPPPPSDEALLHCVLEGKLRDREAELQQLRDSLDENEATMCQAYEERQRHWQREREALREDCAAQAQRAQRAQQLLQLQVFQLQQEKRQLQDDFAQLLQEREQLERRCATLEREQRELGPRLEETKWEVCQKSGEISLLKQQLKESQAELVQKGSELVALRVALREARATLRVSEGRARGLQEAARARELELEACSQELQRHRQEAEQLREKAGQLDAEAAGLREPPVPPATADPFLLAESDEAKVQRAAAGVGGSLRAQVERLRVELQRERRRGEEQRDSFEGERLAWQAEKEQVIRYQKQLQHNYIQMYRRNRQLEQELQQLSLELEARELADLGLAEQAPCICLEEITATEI

Row | effect of a mutation on the interaction | Variant
11 | with no effect | Q461E
12 | with no effect | V98I
13 | disrupting interaction strength | D29G

Variants of: B5
Details: with wwp1_human WWP1, Q9H0M0

Row | effect of a mutation on the interaction | Variant
14 | with no effect | N197I
15 | with no effect | I170V

Variants of: B5
Details: with crx_human CRX

Row | effect of a mutation on the interaction | Variant
16 | with no effect | N197I
17 | with no effect | I170V

Variants of: B5
Details: with wwp2_human WWP2, O00308
Sequence of wwp2_human WWP2, O00308 (O00308 whole entry): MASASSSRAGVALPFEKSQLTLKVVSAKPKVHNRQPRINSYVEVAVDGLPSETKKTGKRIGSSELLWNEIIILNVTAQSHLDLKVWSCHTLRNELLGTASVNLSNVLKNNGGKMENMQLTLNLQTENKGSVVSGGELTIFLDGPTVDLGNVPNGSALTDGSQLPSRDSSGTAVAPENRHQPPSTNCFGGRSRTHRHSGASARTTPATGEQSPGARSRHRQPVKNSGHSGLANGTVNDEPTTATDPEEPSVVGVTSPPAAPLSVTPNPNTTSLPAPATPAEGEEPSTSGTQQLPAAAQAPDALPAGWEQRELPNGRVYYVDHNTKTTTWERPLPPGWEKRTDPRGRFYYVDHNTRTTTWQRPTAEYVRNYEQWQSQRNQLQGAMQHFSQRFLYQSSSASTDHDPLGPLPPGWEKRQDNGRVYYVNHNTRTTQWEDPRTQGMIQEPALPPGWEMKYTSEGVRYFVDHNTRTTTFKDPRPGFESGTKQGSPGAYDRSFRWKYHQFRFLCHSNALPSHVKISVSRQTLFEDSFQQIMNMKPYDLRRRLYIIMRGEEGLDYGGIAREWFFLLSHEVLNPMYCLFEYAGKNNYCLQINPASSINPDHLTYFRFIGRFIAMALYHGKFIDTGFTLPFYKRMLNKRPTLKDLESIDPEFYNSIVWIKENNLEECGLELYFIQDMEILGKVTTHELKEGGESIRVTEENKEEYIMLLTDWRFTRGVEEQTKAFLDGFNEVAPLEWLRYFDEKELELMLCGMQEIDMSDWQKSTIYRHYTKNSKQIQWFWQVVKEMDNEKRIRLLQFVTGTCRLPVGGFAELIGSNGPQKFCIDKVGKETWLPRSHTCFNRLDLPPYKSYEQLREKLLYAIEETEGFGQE

Row | effect of a mutation on the interaction | Variant
18 | with no effect | N197I
19 | with no effect | I170V

Variants of: B5
Details: with smad4_human SMAD4, Q13485
Sequence of smad4_human SMAD4, Q13485 (Q13485 whole entry): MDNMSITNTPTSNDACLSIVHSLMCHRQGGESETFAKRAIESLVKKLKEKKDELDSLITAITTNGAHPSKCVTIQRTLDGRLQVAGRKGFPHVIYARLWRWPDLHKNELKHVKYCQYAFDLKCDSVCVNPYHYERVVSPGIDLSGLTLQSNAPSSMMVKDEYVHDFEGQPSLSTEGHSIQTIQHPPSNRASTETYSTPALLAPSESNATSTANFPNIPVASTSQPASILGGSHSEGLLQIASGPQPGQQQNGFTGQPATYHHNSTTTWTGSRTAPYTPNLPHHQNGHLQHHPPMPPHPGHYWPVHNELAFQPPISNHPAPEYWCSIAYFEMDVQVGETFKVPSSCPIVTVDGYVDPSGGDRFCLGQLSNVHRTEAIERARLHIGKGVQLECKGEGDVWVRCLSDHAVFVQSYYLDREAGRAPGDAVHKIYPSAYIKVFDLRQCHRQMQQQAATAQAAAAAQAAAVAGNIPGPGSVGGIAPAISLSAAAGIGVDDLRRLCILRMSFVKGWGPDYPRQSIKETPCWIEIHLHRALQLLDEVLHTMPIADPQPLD

Row | effect of a mutation on the interaction | Variant
20 | with no effect | N197I
21 | with no effect | I170V

Variants of: B5
Details: with meox2_human MEOX2, P50222
Target sequence in this assay (P50222 whole entry): as the sequence (P50222 whole entry) above

Row | effect of a mutation on the interaction | Variant
22 | with no effect | N197I
23 | with no effect | I170V

Variants of: B5
Details: with ccd33_human CCDC33, Q8N5R6
Target sequence in this assay (Q8N5R6 whole entry): as the sequence (Q8N5R6 whole entry) above

Row | effect of a mutation on the interaction | Variant
24 | with no effect | N197I
25 | with no effect | I170V
